Data published in patent publication US20190389941A1 (GLIKNIK, published 2019).
Values belong to the binder of their own block, whether it stands above or below them.

Molecular target: T1, G990 (Homo sapiens (Human), UniProt P0DOX5 218-449 = IgG part)
T1 construct: GL-2045 background (IgG1 hinge-CH2-CH3-IgG2 hinge) with G236R; homodimeric unit that multimerizes; also called stradomer G990
Assay: BLI (ForteBio Octet), His-tagged receptor on sensor tip; summary grade
Description: Binding of general stradomers or parent stradomer GL-2045 to FcγRI, FcγRIIb, FcγRIIIa, FcγRIIa, was assessed. RU values of dissociation were measured by biolayer interferometry using a ForteBio Octet instrument. His-tagged receptor proteins were bound to the sensor tip in 1X kinetic analysis buffer from ForteBio after which the on rate of the receptor/protein was measured by transferring the sensor tip to a 1x kinetics buffer containing the purified stradomer of choice. Off rate was measured by transferring the sensor tip to a 1X kinetics buffer, and RU value was calculated from the measured maximum binding using the ForteBio software. Biolayer interferometry detects the binding between a ligand immobilized on the biosensor tip surface and an analyte in solution. When binding occurs it produces an increase in optical thickness at the biosensor tip, which results in a wavelength shift (detected as a response unit of “RU”). The maximum binding level (RU max) is the maximum possible amount of sample binding at equilibrium that saturates the amount of ligand on the sensor surface. The RU 300 is the residual sample binding after 300 seconds of dissociation and is useful to characterize the rate of dissociation of the test article from the test ligand.

binding result: no binding
B1: FcγRIIa (receptor, UniProt P12318 34-217, looked up)
chain: QAAAPPKAVLKLEPPWINVLQEDSVTLTCQGARSPESDSIQWFHNGNLIPTHTQPSYRFKANNNDSGEYTCQTGQTSLSDPVHLTVLSEWLVLQTPHLEFQEGETIMLRCHSWKDKPLVKVTFFQNGKSQKFSHLDPTFSIPQANHSHSGDYHCTGNIGYTLFSSKPVTITVQVPSMGSSSPMG
notes: also called His-tagged receptor protein; CD32; not shown: His tag

binding result: no binding
B2: FcγRIIb (receptor, UniProt P31994 43-217, looked up)
chain: TPAAPPKAVLKLEPQWINVLQEDSVTLTCRGTHSPESDSIQWFHNGNLIPTHTQPSYRFKANNNDSGEYTCQTGQTSLSDPVHLTVLSEWLVLQTPHLEFQEGETIVLRCHSWKDKPLVKVTFFQNGKSKKFSRSDPNFSIPQANHSHSGDYHCTGNIGYTLYSSKPVTITVQAP
notes: as for B1
